Laboratory results from US20140087995A1 (published 2014).
Numbered stars: 1 amine (or outer) side, 2 acyl side, 3 side chain; on linkers, the order of the positions; unused ones are H or OH. Bridge positions count the residues as written; N and C are the ends. Side chains are listed from the residue outwards. Ends that are not written are not given here. * marks the point of attachment. C20 diacid = O=C(O)CCCCCCCCCCCCCCCCCCC(=O)*; C18 diacid = O=C(O)CCCCCCCCCCCCCCCCC(=O)*; C16 diacid = O=C(O)CCCCCCCCCCCCCCC(=O)*; γGlu = O=C(O)[C@H](CCC(=O)[*:2])N[*:1]

T1: human calcitonin receptor (human, UniProt P30988 25-474)
T1 sequence (looked up): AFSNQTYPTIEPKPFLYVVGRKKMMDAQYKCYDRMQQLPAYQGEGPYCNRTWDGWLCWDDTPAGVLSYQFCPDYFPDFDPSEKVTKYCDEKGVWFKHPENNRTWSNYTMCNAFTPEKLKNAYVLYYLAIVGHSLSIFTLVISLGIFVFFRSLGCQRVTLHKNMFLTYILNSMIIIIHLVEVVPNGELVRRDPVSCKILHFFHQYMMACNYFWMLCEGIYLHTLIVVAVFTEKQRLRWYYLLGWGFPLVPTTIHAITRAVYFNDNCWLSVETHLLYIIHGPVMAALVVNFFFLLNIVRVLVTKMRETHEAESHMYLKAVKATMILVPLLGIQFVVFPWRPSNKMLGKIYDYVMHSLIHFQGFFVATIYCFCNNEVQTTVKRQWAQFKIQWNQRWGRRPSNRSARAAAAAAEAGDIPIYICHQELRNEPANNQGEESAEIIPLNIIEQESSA

B1: N^ε1-[(4S)-4-carboxy-4-(15-carboxypentadecanoylamino)butanoyl]-[Arg17,Pro21,Pro27,His34]-h-amylin (peptide)
peptide: K([γGlu-C16 diacid])CNTATCATQRLANFLRHSSPNFGAIPSSTNVGHNTY-NH2
modifications: disulfide 2-7; N-terminus assumed
SMILES: CC[C@H](C)[C@H](NC(=O)[C@H](C)NC(=O)CNC(=O)[C@H](Cc1ccccc1)NC(=O)[C@H](CC(N)=O)NC(=O)[C@@H]1CCCN1C(=O)[C@H](CO)NC(=O)[C@H](CO)NC(=O)[C@H](Cc1c[nH]cn1)NC(=O)[C@H](CCCNC(=N)N)NC(=O)[C@H](CC(C)C)NC(=O)[C@H](Cc1ccccc1)NC(=O)[C@H](CC(N)=O)NC(=O)[C@H](C)NC(=O)[C@H](CC(C)C)NC(=O)[C@H](CCCNC(=N)N)NC(=O)[C@H](CCC(N)=O)NC(=O)[C@@H](NC(=O)[C@H](C)NC(=O)[C@@H]1CSSC[C@H](NC(=O)[C@@H](N)CCCCNC(=O)CC[C@H](NC(=O)CCCCCCCCCCCCCCC(=O)O)C(=O)O)C(=O)N[C@@H](CC(N)=O)C(=O)N[C@@H]([C@@H](C)O)C(=O)N[C@@H](C)C(=O)N[C@@H]([C@@H](C)O)C(=O)N1)[C@@H](C)O)C(=O)N1CCC[C@H]1C(=O)N[C@@H](CO)C(=O)N[C@@H](CO)C(=O)N[C@H](C(=O)N[C@@H](CC(N)=O)C(=O)N[C@H](C(=O)NCC(=O)N[C@@H](Cc1c[nH]cn1)C(=O)N[C@@H](CC(N)=O)C(=O)N[C@H](C(=O)N[C@@H](Cc1ccc(O)cc1)C(N)=O)[C@@H](C)O)C(C)C)[C@@H](C)O
B2: N^ε1-[(4S)-4-carboxy-4-(19-carboxynonadecanoylamino)butanoyl]-[Glu14,Arg17,Pro21,Pro27,His34,Glu35]-h-amylin (peptide)
peptide: K([γGlu-C20 diacid])CNTATCATQRLAEFLRHSSPNFGAIPSSTNVGHETY-NH2
modifications: disulfide 2-7; N-terminus assumed
SMILES: CC[C@H](C)[C@H](NC(=O)[C@H](C)NC(=O)CNC(=O)[C@H](Cc1ccccc1)NC(=O)[C@H](CC(N)=O)NC(=O)[C@@H]1CCCN1C(=O)[C@H](CO)NC(=O)[C@H](CO)NC(=O)[C@H](Cc1c[nH]cn1)NC(=O)[C@H](CCCNC(=N)N)NC(=O)[C@H](CC(C)C)NC(=O)[C@H](Cc1ccccc1)NC(=O)[C@H](CCC(=O)O)NC(=O)[C@H](C)NC(=O)[C@H](CC(C)C)NC(=O)[C@H](CCCNC(=N)N)NC(=O)[C@H](CCC(N)=O)NC(=O)[C@@H](NC(=O)[C@H](C)NC(=O)[C@@H]1CSSC[C@H](NC(=O)[C@@H](N)CCCCNC(=O)CC[C@H](NC(=O)CCCCCCCCCCCCCCCCCCC(=O)O)C(=O)O)C(=O)N[C@@H](CC(N)=O)C(=O)N[C@@H]([C@@H](C)O)C(=O)N[C@@H](C)C(=O)N[C@@H]([C@@H](C)O)C(=O)N1)[C@@H](C)O)C(=O)N1CCC[C@H]1C(=O)N[C@@H](CO)C(=O)N[C@@H](CO)C(=O)N[C@H](C(=O)N[C@@H](CC(N)=O)C(=O)N[C@H](C(=O)NCC(=O)N[C@@H](Cc1c[nH]cn1)C(=O)N[C@@H](CCC(=O)O)C(=O)N[C@H](C(=O)N[C@@H](Cc1ccc(O)cc1)C(N)=O)[C@@H](C)O)C(C)C)[C@@H](C)O
notes: also called compound 107
B3: N^ε1-[(4S)-4-carboxy-4-(17-carboxyheptadecanoylamino)butanoyl]-[Arg17,Pro21,Pro27,His34]-h-amylin (peptide)
peptide: K([γGlu-C18 diacid])CNTATCATQRLANFLRHSSPNFGAIPSSTNVGHNTY-NH2
modifications: disulfide 2-7; N-terminus assumed
SMILES: CC[C@H](C)[C@H](NC(=O)[C@H](C)NC(=O)CNC(=O)[C@H](Cc1ccccc1)NC(=O)[C@H](CC(N)=O)NC(=O)[C@@H]1CCCN1C(=O)[C@H](CO)NC(=O)[C@H](CO)NC(=O)[C@H](Cc1c[nH]cn1)NC(=O)[C@H](CCCNC(=N)N)NC(=O)[C@H](CC(C)C)NC(=O)[C@H](Cc1ccccc1)NC(=O)[C@H](CC(N)=O)NC(=O)[C@H](C)NC(=O)[C@H](CC(C)C)NC(=O)[C@H](CCCNC(=N)N)NC(=O)[C@H](CCC(N)=O)NC(=O)[C@@H](NC(=O)[C@H](C)NC(=O)[C@@H]1CSSC[C@H](NC(=O)[C@@H](N)CCCCNC(=O)CC[C@H](NC(=O)CCCCCCCCCCCCCCCCC(=O)O)C(=O)O)C(=O)N[C@@H](CC(N)=O)C(=O)N[C@@H]([C@@H](C)O)C(=O)N[C@@H](C)C(=O)N[C@@H]([C@@H](C)O)C(=O)N1)[C@@H](C)O)C(=O)N1CCC[C@H]1C(=O)N[C@@H](CO)C(=O)N[C@@H](CO)C(=O)N[C@H](C(=O)N[C@@H](CC(N)=O)C(=O)N[C@H](C(=O)NCC(=O)N[C@@H](Cc1c[nH]cn1)C(=O)N[C@@H](CC(N)=O)C(=O)N[C@H](C(=O)N[C@@H](Cc1ccc(O)cc1)C(N)=O)[C@@H](C)O)C(C)C)[C@@H](C)O
B4: N^ε1-[(4S)-4-carboxy-4-(19-carboxynonadecanoylamino)butanoyl]-[Asp14,Arg17,Pro21,Pro27,Pro34,Glu35]-h-amylin (peptide)
peptide: K([γGlu-C20 diacid])CNTATCATQRLADFLRHSSPNFGAIPSSTNVGPETY-NH2
modifications: disulfide 2-7; N-terminus assumed
SMILES: CC[C@H](C)[C@H](NC(=O)[C@H](C)NC(=O)CNC(=O)[C@H](Cc1ccccc1)NC(=O)[C@H](CC(N)=O)NC(=O)[C@@H]1CCCN1C(=O)[C@H](CO)NC(=O)[C@H](CO)NC(=O)[C@H](Cc1c[nH]cn1)NC(=O)[C@H](CCCNC(=N)N)NC(=O)[C@H](CC(C)C)NC(=O)[C@H](Cc1ccccc1)NC(=O)[C@H](CC(=O)O)NC(=O)[C@H](C)NC(=O)[C@H](CC(C)C)NC(=O)[C@H](CCCNC(=N)N)NC(=O)[C@H](CCC(N)=O)NC(=O)[C@@H](NC(=O)[C@H](C)NC(=O)[C@@H]1CSSC[C@H](NC(=O)[C@@H](N)CCCCNC(=O)CC[C@H](NC(=O)CCCCCCCCCCCCCCCCCCC(=O)O)C(=O)O)C(=O)N[C@@H](CC(N)=O)C(=O)N[C@@H]([C@@H](C)O)C(=O)N[C@@H](C)C(=O)N[C@@H]([C@@H](C)O)C(=O)N1)[C@@H](C)O)C(=O)N1CCC[C@H]1C(=O)N[C@@H](CO)C(=O)N[C@@H](CO)C(=O)N[C@H](C(=O)N[C@@H](CC(N)=O)C(=O)N[C@H](C(=O)NCC(=O)N1CCC[C@H]1C(=O)N[C@@H](CCC(=O)O)C(=O)N[C@H](C(=O)N[C@@H](Cc1ccc(O)cc1)C(N)=O)[C@@H](C)O)C(C)C)[C@@H](C)O
B5: N^ε1-[(4S)-4-carboxy-4-(19-carboxynonadecanoylamino)butanoyl]-[Ala14,Arg17,Pro21,Pro27,His34]-h-amylin (peptide)
peptide: K([γGlu-C20 diacid])CNTATCATQRLAAFLRHSSPNFGAIPSSTNVGHNTY-NH2
modifications: disulfide 2-7; N-terminus assumed
SMILES: CC[C@H](C)[C@H](NC(=O)[C@H](C)NC(=O)CNC(=O)[C@H](Cc1ccccc1)NC(=O)[C@H](CC(N)=O)NC(=O)[C@@H]1CCCN1C(=O)[C@H](CO)NC(=O)[C@H](CO)NC(=O)[C@H](Cc1c[nH]cn1)NC(=O)[C@H](CCCNC(=N)N)NC(=O)[C@H](CC(C)C)NC(=O)[C@H](Cc1ccccc1)NC(=O)[C@H](C)NC(=O)[C@H](C)NC(=O)[C@H](CC(C)C)NC(=O)[C@H](CCCNC(=N)N)NC(=O)[C@H](CCC(N)=O)NC(=O)[C@@H](NC(=O)[C@H](C)NC(=O)[C@@H]1CSSC[C@H](NC(=O)[C@@H](N)CCCCNC(=O)CC[C@H](NC(=O)CCCCCCCCCCCCCCCCCCC(=O)O)C(=O)O)C(=O)N[C@@H](CC(N)=O)C(=O)N[C@@H]([C@@H](C)O)C(=O)N[C@@H](C)C(=O)N[C@@H]([C@@H](C)O)C(=O)N1)[C@@H](C)O)C(=O)N1CCC[C@H]1C(=O)N[C@@H](CO)C(=O)N[C@@H](CO)C(=O)N[C@H](C(=O)N[C@@H](CC(N)=O)C(=O)N[C@H](C(=O)NCC(=O)N[C@@H](Cc1c[nH]cn1)C(=O)N[C@@H](CC(N)=O)C(=O)N[C@H](C(=O)N[C@@H](Cc1ccc(O)cc1)C(N)=O)[C@@H](C)O)C(C)C)[C@@H](C)O
notes: also called compound 93

The binders below were run against T1, human calcitonin receptor (assay: cell-based or functional assay).

Binder	hCTR funct. EC50 (pM)
B1	2210
B2	2540
B3	5850
B4	1120
B5	1140
